The values below come from publication PMC8632240.

This experiment addresses human angiotensin-converting enzyme 2 extracellular domain fused to mouse Fc (hACE2-ECD-mFc) (human) (UniProt Q9BYF1). Kind of experiment: ELISA. Background: ELISA stands for enzyme-linked immunosorbent assay.

One may read the IC50 as the concentration needed to halve the response being measured. A higher IC50 goes with a need for much substance.

Sequence of human angiotensin-converting enzyme 2 extracellular domain fused to mouse Fc (hACE2-ECD-mFc) (human) (Q9BYF1 19-617): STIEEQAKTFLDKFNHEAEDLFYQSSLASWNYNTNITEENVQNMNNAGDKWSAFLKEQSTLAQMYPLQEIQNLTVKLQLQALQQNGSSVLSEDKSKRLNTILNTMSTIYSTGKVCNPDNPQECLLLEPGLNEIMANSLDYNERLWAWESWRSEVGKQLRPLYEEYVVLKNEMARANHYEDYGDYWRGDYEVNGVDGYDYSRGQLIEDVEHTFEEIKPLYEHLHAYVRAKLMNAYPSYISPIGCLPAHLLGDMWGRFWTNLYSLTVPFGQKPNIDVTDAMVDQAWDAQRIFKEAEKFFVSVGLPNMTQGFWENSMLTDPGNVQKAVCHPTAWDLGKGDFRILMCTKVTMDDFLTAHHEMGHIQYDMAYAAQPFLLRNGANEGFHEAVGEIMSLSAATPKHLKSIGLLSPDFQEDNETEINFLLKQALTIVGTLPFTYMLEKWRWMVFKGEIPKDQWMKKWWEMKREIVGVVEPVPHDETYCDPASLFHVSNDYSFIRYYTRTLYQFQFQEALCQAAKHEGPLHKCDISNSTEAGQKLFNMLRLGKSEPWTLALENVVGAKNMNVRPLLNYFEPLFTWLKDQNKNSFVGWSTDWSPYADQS

“SARS-CoV-2 S-RBD reference (spike receptor-binding domain, reference type) (from UniProt P0DTC2 319-541) (domain or fragment)” gave a half-maximal inhibitory concentration (IC50) of 123 nM.
